Measurements: the supplement of paper PMC9112550, “Optimization of the antimicrobial peptide Bac7 by deep mutational scanning” (BMC Biology, 2022)

These sequences were tested on Escherichia coli TOP10 (assay: shrunken log2 fold change of peptide-encoding DNA abundance (4.5 h post-induction vs induction); higher = less antimicrobial activity (less host growth inhibition)). Details: time post-induction: 4.5 h; library: site-saturation at positions 5, 18, 19, 20.
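Further: peptides expressed intracellularly from a pBAD plasmid library in pooled LB shake-flask culture, induced with 0.3% L-arabinose, DNA abundance read by NGS, three biological replicates, DESeq2 with apeglm shrinkage.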

Sequence | shrunken log2 fold change
RRIRYRPPRLPRPRPRPAPDPRP | 0.307
RRIRLRPPRLPRPRPRPPMWPRP | 0.26
RRIRGRPPRLPRPRPRPSFVPRP | 0.0328
RRIRHRPPRLPRPRPRPKTDPRP | -0.434
RRIRLRPPRLPRPRPRPYSIPRP | 0.0705
RRIRERPPRLPRPRPRPLFIPRP | -0.0618
RRIRARPPRLPRPRPRPYNTPRP | -0.606
RRIRKRPPRLPRPRPRPVNVPRP | 0.0147
RRIRLRPPRLPRPRPRPHHFPRP | -0.128
RRIRSRPPRLPRPRPRPQQHPRP | 0.0668
RRIRHRPPRLPRPRPRPQWVPRP | 0.0322
RRIRFRPPRLPRPRPRPGPIPRP | 0.218
RRIRARPPRLPRPRPRPMFCPRP | 0.211
RRIRFRPPRLPRPRPRPQDAPRP | -0.0849
RRIRPRPPRLPRPRPRPQQHPRP | -0.0726
RRIRLRPPRLPRPRPRPAFCPRP | 0.289
RRIRERPPRLPRPRPRPKKGPRP | -0.438
RRIRERPPRLPRPRPRPHTAPRP | -0.14
RRIRMRPPRLPRPRPRPDNKPRP | -0.336
RRIRRRPPRLPRPRPRPCFGPRP | 0.0921
RRIRTRPPRLPRPRPRPGDMPRP | 1.73
RRIRFRPPRLPRPRPRPKTYPRP | -0.578
RRIRSRPPRLPRPRPRPLHTPRP | 0.0576
RRIRHRPPRLPRPRPRPDTNPRP | 0.102
RRIRLRPPRLPRPRPRPSWFPRP | -0.237

Sequence | shrunken log2 fold change
RRIRYRPPRLPRPRPRPKWSPRP | -0.0252
RRIRNRPPRLPRPRPRPMYEPRP | 0.0112
RRIRCRPPRLPRPRPRPEGTPRP | 0.137
RRIRIRPPRLPRPRPRPNFRPRP | -0.297
RRIRRRPPRLPRPRPRPKYAPRP | -0.0331
RRIRDRPPRLPRPRPRPRSKPRP | 0.401
RRIRGRPPRLPRPRPRPWCQPRP | 0.224
RRIRFRPPRLPRPRPRPEDTPRP | 0.144
RRIRTRPPRLPRPRPRPMFHPRP | -0.52
RRIRIRPPRLPRPRPRPYANPRP | -0.0728
RRIRERPPRLPRPRPRPLHTPRP | -0.674
RRIRGRPPRLPRPRPRPLKDPRP | 0.125
RRIRYRPPRLPRPRPRPEDRPRP | 0.119
RRIRCRPPRLPRPRPRPSKIPRP | -0.597
RRIRFRPPRLPRPRPRPPGRPRP | 0.637
RRIRGRPPRLPRPRPRPHIWPRP | 0.00296
RRIRKRPPRLPRPRPRPFLKPRP | 0.0443
RRIRTRPPRLPRPRPRPFWPPRP | 0.178
RRIRARPPRLPRPRPRPWWGPRP | 3.62
RRIRKRPPRLPRPRPRPPKQPRP | 0.202
RRIRFRPPRLPRPRPRPKSAPRP | -0.00592
RRIRFRPPRLPRPRPRPDMYPRP | -0.00804
RRIRQRPPRLPRPRPRPPFFPRP | 0.249
RRIRCRPPRLPRPRPRPHPFPRP | -0.0728
RRIRNRPPRLPRPRPRPSERPRP | -0.016

Sequence | shrunken log2 fold change
RRIRHRPPRLPRPRPRPPYVPRP | -0.0952
RRIRFRPPRLPRPRPRPHLPPRP | -0.0118
RRIRMRPPRLPRPRPRPTTDPRP | 0.815
RRIRIRPPRLPRPRPRPGVFPRP | 0.292
RRIRMRPPRLPRPRPRPAFSPRP | 0.0185
RRIRARPPRLPRPRPRPIFDPRP | 0.0844
RRIRPRPPRLPRPRPRPGPHPRP | 0.134
RRIRTRPPRLPRPRPRPGDHPRP | 0.00667
RRIRPRPPRLPRPRPRPHRGPRP | -0.0385
RRIRGRPPRLPRPRPRPNVKPRP | 0.292
RRIRRRPPRLPRPRPRPKDYPRP | -0.485
RRIRQRPPRLPRPRPRPHQKPRP | -0.0904
RRIRFRPPRLPRPRPRPFYWPRP | -0.217
RRIRLRPPRLPRPRPRPDRFPRP | -0.00452
RRIRLRPPRLPRPRPRPNGCPRP | 0.00888
RRIRWRPPRLPRPRPRPSRTPRP | 0.188
RRIRDRPPRLPRPRPRPECTPRP | 1.05
RRIRWRPPRLPRPRPRPALYPRP | 0.232
RRIRLRPPRLPRPRPRPAGCPRP | 0.263
RRIRYRPPRLPRPRPRPCMWPRP | 0.0465
RRIRNRPPRLPRPRPRPSTSPRP | -0.36
RRIRTRPPRLPRPRPRPMEAPRP | -0.0389
RRIRVRPPRLPRPRPRPWWEPRP | 0.161
RRIRARPPRLPRPRPRPALKPRP | 0.825
RRIRRRPPRLPRPRPRPASKPRP | 0.276

Sequence | shrunken log2 fold change
RRIRWRPPRLPRPRPRPYKKPRP | -0.225
RRIRCRPPRLPRPRPRPMIAPRP | 0.111
RRIRDRPPRLPRPRPRPPRFPRP | 0.315
RRIRGRPPRLPRPRPRPKACPRP | 0.145
RRIRDRPPRLPRPRPRPCLRPRP | -0.188
RRIRMRPPRLPRPRPRPQQHPRP | 0.0483
RRIRLRPPRLPRPRPRPTHIPRP | -0.148
RRIRDRPPRLPRPRPRPCVQPRP | 0.239
RRIRWRPPRLPRPRPRPHKNPRP | -0.13
RRIRKRPPRLPRPRPRPQDRPRP | 0.201
RRIRGRPPRLPRPRPRPVEIPRP | 0.177
RRIRTRPPRLPRPRPRPKWTPRP | 0.0189
RRIRVRPPRLPRPRPRPAVKPRP | 0.318
RRIRHRPPRLPRPRPRPDDFPRP | -0.198
RRIRWRPPRLPRPRPRPRVTPRP | 1.75
RRIRDRPPRLPRPRPRPMCFPRP | 0.0878
RRIRGRPPRLPRPRPRPAEPPRP | 0.176
RRIRKRPPRLPRPRPRPQPEPRP | 0.7
RRIRFRPPRLPRPRPRPILYPRP | -0.7
RRIRERPPRLPRPRPRPKHDPRP | -0.441
RRIRMRPPRLPRPRPRPVRDPRP | 0.882
RRIRMRPPRLPRPRPRPHRCPRP | 0.15
RRIRMRPPRLPRPRPRPHQKPRP | -0.0408
RRIRGRPPRLPRPRPRPMSFPRP | 0.308
RRIRIRPPRLPRPRPRPVADPRP | 0.0861

Sequence | shrunken log2 fold change
RRIRSRPPRLPRPRPRPTNCPRP | 0.0777
RRIRSRPPRLPRPRPRPWFTPRP | -0.253
RRIRCRPPRLPRPRPRPNQEPRP | -0.0562
RRIRCRPPRLPRPRPRPTDDPRP | 2.22
RRIRMRPPRLPRPRPRPPGDPRP | 1.51
RRIRQRPPRLPRPRPRPWYNPRP | -0.375
RRIRFRPPRLPRPRPRPPRQPRP | 0.828
RRIRWRPPRLPRPRPRPASQPRP | 0.271
RRIRSRPPRLPRPRPRPGPQPRP | 0.885
RRIRTRPPRLPRPRPRPSGEPRP | 2.88
RRIRPRPPRLPRPRPRPLYDPRP | 2.73
RRIRPRPPRLPRPRPRPPRHPRP | 0.278
RRIRERPPRLPRPRPRPATDPRP | -0.00755
RRIRRRPPRLPRPRPRPKIGPRP | 0.396
RRIRARPPRLPRPRPRPSTMPRP | -0.237
RRIRRRPPRLPRPRPRPHMTPRP | 0.00051
RRIRGRPPRLPRPRPRPSRQPRP | 0.133
RRIRFRPPRLPRPRPRPLLLPRP | -0.443
RRIRMRPPRLPRPRPRPHGKPRP | -0.0884
RRIRFRPPRLPRPRPRPNLPPRP | -0.454
RRIRERPPRLPRPRPRPGCGPRP | 0.307
RRIRMRPPRLPRPRPRPAQHPRP | 0.0457
RRIRTRPPRLPRPRPRPSHVPRP | 2.39
RRIRMRPPRLPRPRPRPINWPRP | -0.011
RRIRNRPPRLPRPRPRPRCCPRP | -0.247

Sequence | shrunken log2 fold change
RRIRVRPPRLPRPRPRPGCGPRP | 0.679
RRIRKRPPRLPRPRPRPDYCPRP | 0.0953
RRIRKRPPRLPRPRPRPKFTPRP | 0.355
RRIRWRPPRLPRPRPRPEAYPRP | 0.212
RRIRHRPPRLPRPRPRPAFSPRP | -0.0483
RRIRWRPPRLPRPRPRPAFEPRP | 0.183
RRIRWRPPRLPRPRPRPLYDPRP | -0.0701
RRIRERPPRLPRPRPRPNRPPRP | -0.123
RRIRTRPPRLPRPRPRPREGPRP | 0.41
RRIRCRPPRLPRPRPRPQIFPRP | 2.2
RRIRWRPPRLPRPRPRPYTLPRP | -0.681
RRIRWRPPRLPRPRPRPVNGPRP | -0.295
RRIRHRPPRLPRPRPRPFAFPRP | -0.121
RRIRYRPPRLPRPRPRPNQFPRP | -0.533
RRIRNRPPRLPRPRPRPWADPRP | -0.124
RRIRERPPRLPRPRPRPSCYPRP | -0.941
RRIRGRPPRLPRPRPRPEDMPRP | 1.02
RRIRNRPPRLPRPRPRPNYYPRP | -0.473
RRIRSRPPRLPRPRPRPCSDPRP | 0.21
RRIRHRPPRLPRPRPRPAQMPRP | 0.127
RRIRPRPPRLPRPRPRPDEKPRP | -0.0591
RRIRPRPPRLPRPRPRPVWHPRP | 0.186
RRIRTRPPRLPRPRPRPKYAPRP | -0.495
RRIRERPPRLPRPRPRPSHYPRP | -0.611
RRIRKRPPRLPRPRPRPISFPRP | -0.1
